# Laboratory results from publication PMC4351732 (Structure (London, England : 1993), 2015).
# B1: human NAPE-hydrolyzing phospholipase D (NAPE-PLD), truncated form Δ47 (D47 to F393) (enzyme, UniProt Q6IQ20 47-393, looked up)
# chain: DYRLEEDVTKSKKGKDGRFVNPWPTWKNPSIPNVLRWLIMEKDHSSVPSSKEELDKELPVLKPYFITNPEEAGVREAGLRVTWLGHATVMVEMDELIFLTDPIFSSRASPSQYMGPKRFRRSPCTISELPPIDAVLISHNHYDHLDYNSVIALNERFGNELRWFVPLGLLDWMQKCGCENVIELDWWEENCVPGHDKVTFVFTPSQHWCKRTLMDDNKVLWGSWSVLGPWNRFFFAGDTGYCPAFEEIGKRFGPFDLAAIPIGAYEPRWFMKYQHVDPEEAVRIHTDVQTKKSMAIHWGTFALANEHYLEPPVKLNEALERYGLNAEDFFVLKHGESRYLNNDDENF
# Target: the molecule itself
# Assay: crystal structure
protein,measurement,value
B1,stoichiometry N,2
